Square brackets hold non-standard residues; d marks the D form. Primed or numbered codes have the meaning given here. Ends that are not written are not given here. dCha = N[C@H](CC1CCCCC1)C(=O)O; dNle = CCCC[C@@H](N)C(=O)O; PEG2′ = not defined here; Tam = not defined here

One assay deals with T1, Ac-VQIINK-NH2 (SEQ ID NO: 23).
T1 sequence (peptide, N-terminal acetyl (Ac); C-terminal amide (NH2)): RLKIRW
As to the kind of experiment: cell-based or functional assay.
As to [dW][dR][dNle][dK][dNle][dR][dW] [wrukurw], the VQIINK Inhibition IC50 worked out at 1.73 µm.

[dW][dR][dL][dK][dNle][dR][dW] [wrlkurw]: the VQIINK Inhibition IC50 was found to be 1.41 µm.

Regarding [dL][dK][dNle][dR][dI][dH][dY] [lkurihy], the VQIINK Inhibition IC50 came to 1.5 µm.

Turning to [dCha][dR][dL][dK][dV][dR][dW] (not fully specified; printed as brlkvrw) [brlkvrw], the VQIINK Inhibition IC50 stood at 2.31 µm.

As for [dW][dR][dCha][dK][dCha][dR][dW] (not fully specified; printed as wrbkbrw) [wrbkbrw], the VQIINK Inhibition IC50 came to 0.77 µm.

With [dNle][dR][dL][dK][dV][dR][dW] [urlkvrw], the VQIINK Inhibition IC50 was 2.29 µm.

Molecule [dL][dK][dNle][dR][dNle][dH][dY] [lkuruhy] had a VQIINK Inhibition IC50 of 0.87 µm.

With [dL][dK][dI][dR][dNle][dH][dY] [lkiruhy], the VQIINK Inhibition IC50 is 2.07 µm.

The molecule [dW][dR][dNle][dK][dV][dR][dW] [wrukvrw] returned a VQIINK Inhibition IC50 of 2.1 µm.

Molecule [dNle][dK][dI][dR][dI][dH][dY] [ukirihy] displayed a VQIINK Inhibition IC50 of 1.12 µm.

In a further assay the target is T2, Tau40 P301L protein (human).
T2 sequence: WIKIRR
Nature of the assay: cell-based or functional assay.
The molecule [dW][dR][dNle][dK][dNle][dR][dW] [wrukurw] had an IC50, Tau40 assay (ThT) of 7.21 µM.

[dW][dR][dCha][dK][dCha][dR][dW] (not fully specified; printed as wrbkbrw) [wrbkbrw] registered an IC50, Tau40 assay (ThT) of 9.33 µM.

The next assay addresses Tau40 P301L protein (human). Nature of the assay: cell-based or functional assay.
As for {TAMRA5-PEG2′}-[dW][dR][dA][dK][dA][dR][dA][dW]-OH [TAMRA5-PEG2-wrakaraw-OH], the “IC50, Tau40 assay-Modified peptides (ThT)” value was determined as 9.17 µM.

Consider Tam-RRRRRRRRRRGGSGG[dW][dR][dI][dW][dI][dR][dY][dW] (reading uncertain; also: printed as Tam-RRRRRRRRRR-GGSGG-wriwiryw) [Tam-RRRRRRRRRR-GGSGG-wriwiryw], for which the “IC50, Tau40 assay-Modified peptides (ThT)” value amounted to 4.94 µM.

Turning to YGRKKRRQRRRGGSGG[dR][dL][dK][dV][dR][dW] [[…]-GGSGG-rlkvrw], the “IC50, Tau40 assay-Modified peptides (ThT)” value was 1.73 µM.

With RRRRRRRRRGGSGG[dR][dL][dK][dV][dR][dW] [RRRRRRRRR-GGSGG-rlkvrw], the “IC50, Tau40 assay-Modified peptides (ThT)” value is 6.07 µM.

As to Tam-RRRRRRRRRGGSGG[dR][dL][dK][dV][dR][dW] (reading uncertain; also: printed as Tam-RRRRRRRRR-GGSGG-rlkvrw) [Tam-RRRRRRRRR-GGSGG-rlkvrw], the “IC50, Tau40 assay-Modified peptides (ThT)” value turned out to be 20.1 µM.

Tam-YGRKKRRQRRRGGSGG[dR][dL][dK][dV][dR][dW] (reading uncertain) [Tam-[…]-GGSGG-rlkvrw]: the “IC50, Tau40 assay-Modified peptides (ThT)” value is 6.6 µM.

The target of another assay is T3, His-Tau40 P301L Tau fibrils (human).
T3 chain: RLRIRW
Nature of the assay: cell-based or functional assay.
Tam-RRRRRRRRRRGGSGG[dE][dL][dK][dI][dV][dW] (reading uncertain; also: printed as Tam-RRRRRRRRRR-GGSGG-elkivw) [Tam-RRRRRRRRRR-GGSGG-elkivw]: the “EC50, HEK cell assay (TauRD(P301S) split luciferase, seeded with tau fibrils)” value is 5.6 µM.

(Values after patent publication US20200216495A1 (ADRX, published 2020).)
